Measurements taken from US20140289906A1, “Compositions Having Dicamba Decarboxylase Activity and Methods of Use” (priority 2013, published 2014).

B1: 71 (protein, listed as Burkholderia dolosa)
chain: MARAGHRAARTRQSRPGDRTMTCSCCMSAGRRRVLGAFAALAGAPKGPRAASAAQPAAASKPTRGDATARNRHSRALLPGKASASWSATKASGSGGAFAWDDTTFTFRTPAGGLGPLPMKFIDVDARLRDMDASGVDVQALSLSVPMAYWGDRPFNAKLARAWNTAASRVHVRAPDRFVVLATLPMLDATDAIDELERASELPGVRGVYMGTNIDNRDLDDPRFAPVFARIEQLGLPVFLHPQQTVGGARLGDFYLSNLLGNPFDTAIAASHLILGGVLDRHPALHFTLPHAGGALPILVGRLDAGWTVRAETRRLAHQPSGYLRRFSYDTVSHSGPVLNFLIENVGIDRLVLGSDYCFDMGYEQPVRFLDRLDLTPDERAMVIGGNAGRLLRI
B2: 45 (protein)
chain: MANDDLAEVIAAHPDRFAGFAALPMRDPQAAAVELQRAVGTHGFCGAMINGLIEGRFLDDPAFAPLLSTAADLGVPLYLHPSFPPPQVAEIYFGGLAPVLGDLLATAGWGWHAETALHVLRLVATGVFDRLPELWVIVGHMGEMIPFALARIDTVLSPVAQLRQPVAQYFQTNVWFTTSGYTTFPPLQCALSTVGIDRLIFSVDYPYTDNTSARALLDTAPISPVDREKLAHGTVEALLRV
modifications: Mycobacterium sp
B3: 70 (protein, listed as Alicyclobacillus acidocaldarius)
chain: MAIEPNRAADVHTHFLPTEVLEFLKREPRIQVDLERRAPDKEPFLTVEGRWSFELKRMFVDFEAFASAYRQAGIGLALVSPLPQLFVYHLPAEMGAQVAEVYNDALRDVLAPHRERFRPLATLPLADPTAAARELERRMDEGFVGAIVGPGVGEALIGDEAFWPLWEVADARRAVLFLHPLLHADPRAARLMLPNLVGVPWETTLAAAHLVLSGLLDRYPGARVLLAHGGGFLPYQIGRIEQGYDVWPQVRGRLQDRPTAYLRRMFYDNVLWSDAALRCLIDVVGADRVLAGSDFPFDLSAWPPRPGADVSVLAGGSGREGRLS
B4: 59 (protein)
chain: MAPSVIDAHAHFLPGSLVTALRSRSDAPDIRTDSNGGESFGIYRTRMPYGRTYDALDVRLARMDELGVDRQILSLPGLFGIDSRPVSQALPLVRAFNDGVADLVRKHPDRFSGIAALPLADLDAAQEEYRRARGDLGLSGLILPGDTFVSVAAAERVRPLFELAATIGGLIFVHPGPLPDETGSAVDAPAPHTDSVVHRRVTVDIQNRMTEVMVTLALTDFLAPYPSVPVQVANLGGSLPFVIERMDHVYALRNPEAPPPSLSLRSLYVDAASLGPRAIALAAEVYGADRVLFGSDYPIFDDGRCLDAVRQTRLSPDARALIAGGNAARMLTQT
modifications: alpha proteobacterium
B5: 60 (protein, listed as Catenulispora acidiphila)
chain: MARGFVRTAVVPGFWDAGWRGAGQPGGMRVDVHAHLFPAAYLDLLDDFRQDGGVGTREVRALGGGDGERELRLRLAAMDAVGVDVQLLSTCPQGPYTGDPTAAVEAARCANVALAQTVAQYPERLRALAALPLPHILASVDELNRAMEQDGMLGAAVGTSILGRPLSHPDFEPLFAALNRRKGVLFVHPIGESAGSPLMQASKLDRVIGYAAEVSTAILQLFQAGLTVKYPDIRIIAPHMGGYLPFLIQRLDRHRDWYLPKDAPSAGQLMRGIAYDTANPLPAALRLTAEVVGPERLLLGTDYPFEQGPSLRDHIEYILAAGLPEAQAKMIVDVNAADFLDMRSGAEQPPV
B6: 69 (protein, listed as Microbacterium testaceum)
chain: MATSTEGQDVTDVHAHLLMPGLHAEVERRVPDEVQAAADLELRRNGLASLQASGRMIGERFPRLTDVRARLAAMDEQGVDRQWVSPSPNHFYPWANEGLATWASGEANRLIAEHVALAPDRLVGLGVVPLQHPHLVVDALDDAVLGRGLAGVEISSFAGDVELSDERLESFWARAAELRAVVFLHPFGCSLDERLDRFYLSNTVGQPTENAVALSHLIFSGVLDRHPGLRLIAAHGGGYLPTAIGRSDRAWRVRPEARGCAHAPSTYLSKLWFDTVVHDERALRWLVEAAGADRVLLGSDFPFDMGLDDPVAFVRGAGLQDAEVSGILGGNAAELLRTRVHA
B7: 64 (protein, listed as Achromobacter piechaudii)
chain: MAIQKIDMHAHFFPPITRQEAAALDPVNAPWLRPDADGATGQIMAGEREFRPVDATLWDPALRIEQMDRHGVDVQILCATPIMFGYTYPARPAADWAARMNDLALEHCAYAPSRLKALAQVPLQDLELACQEASRARAAGHLGVQIGNHVGPRDLDDETLVQFLIHCANNDIPVLVHPWDMMTDGRMKKWMLPWLVSMPAETQLGILSLILSGAFERIPRSLKLCFAHGGGSFAYLLGRVDNAWRHRDIIRQDCPQLPSSYTDRFYTDSAVFDPRSLRLLIDVMGEDRVLLGSDYPYPLGEQEVGRLVAHAELVPEVQQKILFRNTMTFFGLQPGLQPGLQS
B8: 62 (protein)
chain: MAVGGKNFRDVTDQVWCPKKRIEDMDREGVDIQVLSPIPVTFSYWAKPEEAESMARIQNDFIAETVLAYPDRFVGLGTVPMQDGETAIREMERCITELNLHGIEIGTNVNGKNLDDPSFIEFFRMAEKWQVPIFIHPWETLGRDRMPHHNFMYTVGMPSETALAAATLIWSGIMEKFPRLKVCFAHGGGSFPYILPRLDQGWKVWPHLRLTTHPPSYYAKKFYFDSLNYDPINLKYMIERFGHEKIFMGSDYPFLLREVDPGKVIDETASLSEEQKAAMLGGNAAEFLNIDIKKRGVAYAESTNT
modifications: Bacillus thuringiensis serovar pulsiensis
B9: 3 (protein, listed as Lactobacillus plantarum)
chain: MAKLITVEEHFESAAVTAAMRQAVGNAVLPAVSPALRQYMRDNLPSPAIMQDTQHERLAFMAQYGIDMQVLSYGNSSPQNLSPEQAVPLSQLANDELAKAVVAHPDRYAGLAVLPVGDPQAAVAELNRAVTTLGLRGVLLKGNYQNKFFDEPFFLPIFEAAAALDVPVYFHPSFIPQAVTSHYFESNQWSDVVTGILSSAGYGWHMDVGIQVIRMIASGIFDKLPGLKLISGHWGELVPLFLERLDDELTTYTDLQYPFSTYYRHNVYVTPSGILSAPQLQFMLAEMGADHLMYSIDYPYKQPETSGSFLDIADLTDEQRAQIAFGTATTLFKL
B10: 61 (protein, listed as Gordonia amarae)
chain: MATGAGSGVPSPADRVIVRSPGVIDVHAHAVLPMSLGCAGAAGPEIGYREDGSPFFRVGEYVLNGVRYEGSAFMDPEVRVAAMDAAGIGLQMISPNPITYFTRLDARSATDYARAHNDAIAEAAGRHPGRLVGAAQLPMQDVPAAIAELERSVRELGLVAAYIDTDIGDRTLDAPELDDFYSAAVELDVPVFIHPSPVGQEGPPDDTRLRRFDLDLLLGFSYDETLAVAALVFGGVLERHPALDVCLSHGGGTLAFVAGRFARAVAKPRAWVPEFLVENGIESYLRRLWLDTHVHSAGSLRLLIDTVGTDRLVFGTNFAGWDADGATEVDALGDLRETTTANAAHLLRLGRA
B11: 68 (protein, listed as Hoeflea phototrophica)
chain: MAIIDAHTHTLCPAVNEKVAGTIKPDSVPYQRDMSPESKEQDHTQFPELKIMFNQVERRLADMARMGIDRQVIAPAPGQQHYWAEPKLLAEISALQNDHVAELVARAPDRFAGIGTLPMTDPDAAVAEITRATRELGLRVFQIDSRVMERELSDASLDPIYAALEAAGAGLMIHPLGFSNGERLTPFFMVNSVAQPLEELLAFNHLVFGGVLDRFPKLKVYIAHGGGFAPFYIGRFDHAWKVRPEVNRLTPSAPSTYLRRIYFDTCVYRTDHIETLVRTVGADRVMLGSDYPFDMGDTDPLGLLNACQGLSDDEKATISSKVAIDFFGLET
B12: 42 (protein)
chain: MAQGKIALEEHFAIPDTLQDSAGFVPGDYWKELSARLLDIHEQRLMQMDAYGIEKMILSLNAPAVQAIPDKAKALEISRRANDFLAEQCARNPDRFLGFAALPLQDPDAATAELQRCVKTLGFVGALVNGFSQEGDGVTPLYYDLPQYRGFWAEVEKLAVPFYLHPRNPLPQDSRIYAGHPWLMGPTWAFAQETAVHALRLVGSGLFDDHPALRIILGHMGEGLPYMMWRIDNRNAWVKVAPNYPAKRRIADYFNENFYITTSGNFRTQSLVDAMLEIGADRILFSTDWPFENIDHASDWFDTATISEADRLKIGRTNAATLFNLES
modifications: Agrobacterium radiobacter
B13: 72 (protein)
chain: MADCPCCVSPKRRRLLGSVSAIAAGMMAGLPALAAQPSTAAAGTGKPLSIDIHAHYYSESFLGLLGGEGKQFGGHFFRNDDSFTFQTPAGGLGPLPMKFIDVEQRVRDMDNSGVDVQAISLSVPMVYWADRTLNAKLARAWNTAASDVHRKHPTRFVVLATLPMLNANDAIDELEFAAGLPGVRGIYMGTNINNRDLDDPLFSPIFKRIEQLNLPIFLHPQQTVGGARLADFYLSNLLGNPFDTAIAASHLILGGVLDKYPALHFSLPHAGGALPILVGRIDAGWSMRSETKRVAQKPSSYLRRFSYDTISHSGPTLDFLIRNIGADRLVLGSDYCFDMGYEQPVRFLDRLALPDDQKRMVVGGNAARLLNL
modifications: Cupriavidus necator
B14: 73 (protein, listed as Sphaerobacter thermophilus)
chain: MARIDAHAHAQPPEYLDALLASGRYESVRDAEGRIVVRERGSRFLTITPQMHHPEQRVAEMDEAGIDMQILSVTTPQVYFLQGQAAVDLARRCNDYLADIVRSYPTRFRALASVPLTADPDAAVREFVRCLDDLGMVGAIIGSNIDGRPIDDPAFDAFYAEADRRATTLFIHPMVPAGIEVMNPYALAPLVGFMFDTTLAVSRLIFSGFFERYPRVKVLVGHLGAAVPYLAGRLDIGWRSYSDCQGIPHPPTEYIRRLYLDTVSFHAPALRCALETVGPDRIVFGSDYPHVIGDVGGAIASIQQALPATTHDGVLGHTAAELFGVSA

Test: 14C assay: 14CO2 capture from [14C]-carboxyl-labeled dicamba with IPTG-induced recombinant E. coli cells
Conditions: for Dicamba Decarboxylase Activity: IPTG-induced recombinant E. coli cells, 14CO2 from [14C]-carboxyl-labeled dicamba; for Enzymatic Detection level: dicamba decarboxylation activity

Molecule	Dicamba Decarboxylase Activity	Enzymatic Detection level
B1	Low	Low
B2	No	No
B3	Low	Low
B4	No	No
B5	No	No
B6	No	No
B7	Low	Low
B8	No	No
B9	Low	Low
B10	No	No
B11	No	No
B12	Low	Low
B13	Low	Low
B14	Low	Low
